This experiment has as its target human C5a receptor (human) (UniProt P21730). Description: cell-based or functional assay.

Chain of human C5a receptor (human) (P21730 whole entry): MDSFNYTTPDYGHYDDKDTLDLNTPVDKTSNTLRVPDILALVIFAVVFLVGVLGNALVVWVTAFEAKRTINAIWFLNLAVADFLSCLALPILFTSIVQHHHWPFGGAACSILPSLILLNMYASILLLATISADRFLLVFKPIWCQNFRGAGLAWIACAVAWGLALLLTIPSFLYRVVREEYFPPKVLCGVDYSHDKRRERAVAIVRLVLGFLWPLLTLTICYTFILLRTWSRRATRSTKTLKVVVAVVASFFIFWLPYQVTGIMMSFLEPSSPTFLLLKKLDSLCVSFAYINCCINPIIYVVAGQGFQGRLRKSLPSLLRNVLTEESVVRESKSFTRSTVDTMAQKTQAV

Regarding “mouse C5a (from UniProt P06684 679-755) (ligand)”, the half-maximal effective concentration (EC50) in chemotaxis assay of BA/F3/huC5aR cells stood at 0.3 nM.
For the substance “recombinant human C5a (from UniProt P01031 678-751) (ligand)”, the half-maximal effective concentration (EC50) in chemotaxis assay of BA/F3/huC5aR cells is 0.1 nM.

Values taken from US20140350088A1.
